# Data published in patent US7205273B2, “Fusogenic liposomes” (The University of British Columbia, priority 1996, dated 2007).
# Assays:
# [1] = 31P-NMR phase behaviour of equimolar DOPE:cholesterol mixtures with bilayer stabilizing component; format: physicochemical; settings: DOPE:cholesterol:BSC 1:1:0.25, 0 to 60° C.
# Experimental: Lipid components were mixed in 1–2 ml of benzene:methanol (95:5, v/v) and then lyophilized for a minimum of 5 hours at a pressure of <60 millitorr using a Virtis lyophilizer equipped with a liquid N2 trap. Multilamellar vesicles (MLVs) were prepared by hydrating the dry lipid mixtures in 150 mM NaCl, buffered with 10 mM Hepes-NaOH, pH 7.4 (Hepes-buffered saline, HBS). Mixtures were vortexed to assist hydration. To produce large unilamellar vesicles (LUVs), MLVs were first frozen in liquid nitrogen and then thawed at 30° C. five times. LUVs were produced by extrusion of the frozen and thawed MLVs ten times through 2 stacked polycarbonate filters of 100 nm pore size at 30° C. and pressures of 200–500 psi (Hope, et al., Biochim. Biophys. Acta, 812:55–65 (1985)).
# ^31P-NMR spectra were obtained using a temperature controlled Bruker MSL200 spectrometer operating at 81 MHz. Free induction decays were accumulated for 2000 transients using a 4 μs, 90° pulse, 1 sec. interpulse delay, 20 KHz sweep width and Waltz decoupling. A 50 Hz line broadening was applied to the data prior to Fourier transformation. Samples were allowed to equilibrate at the indicated temperature for 30 minutes prior to data accumulation. Lipid concentrations of 30–70 mM were used.
# [2] = Lipid mixing (FRET) assay, NaCl-induced fusion of DOPE:DODAC liposomes; settings: DOPE:DODAC:PEG-lipid 83:15:2, 300 mM NaCl, POPC sink, 37° C.
# Experimental: FIG. 16 illustrates the inhibition of fusion of DOPE:DODAC liposomes by PEG-PE. Liposomes were prepared from either DOPE:DODAC (85:15) or DOPE:DODAC:DMPE-PEG2000 (83:15:2). Fusion was assayed as described under FIG. 1 using 300 mM NaCl.
# FIG. 17 illustrates the recovery fusogenic activity after PEG removal. Liposomes were prepared from either DOPE:DODAC:ceramide(C8:0)-PEG2000, 83:15:2 or […], 38:45:15:2. Fusion was assayed as described under FIG. 2 except that at the indicated times a 30 fold excess (over donors) of liposomes composed of POPC or POPC:cholesterol (55:45) was added.
# FIG. 18 illustrates the effect of the lipid anchor on the rate of PEG-lipid removal. […] At zero time a 13-fold excess (over labelled vesicles) of POPC liposomes was added and the fluorescence intensity was measured at the indicated times. At the end of the assay Triton X-100 (0.5% final) was added to eliminate energy transfer and the % fusion was calculated from the change in efficiency of energy transfer. Maximum fusion was calculated from a standard curve of energy transfer efficiency against the molar fraction of Rh-PE in the membrane assuming complete mixing of labelled and unlabelled liposomes.
# Lipid mixing was measured by a modification of the fluorescence resonance energy transfer (FRET) assay of Struck, et al. (Biochemistry, 20:4093–4099 (1981)). […]
substance,measurement,setting,value
1-O-methyl-(poly(ethoxy)-O-succinyl-O-(egg)ceramide [egg ceramide-PEG2000],phase preference by 31P-NMR,[1],exclusively bilayer up to 60 °C
same,time for 50% maximal fusion,[2],over 20 hr
